From the Immune Epitope Database (IEDB)
pKd: −log10 of the molar value. Blank lines part the entries; values can stand above or below the sequence they belong to.

Tests used:
HLA-B*18:01 [1] = assay: IEDB peptide-MHC binding, purified MHC/competitive/radioactivity; filed as Kd, often an IC50 or EC50 that approximates it; ≥ and ≤ were set here for values at or beyond the usual limits of such assays
HLA-B*45:01 = assay: as above
HLA-B*40:01 = assay: as above
HLA-B*40:02 = assay: as above
HLA-B*44:03 = assay: as above
HLA-B*44:02 = assay: as above
HLA-A*03:01 = assay: IEDB peptide-MHC binding, purified MHC/competitive/fluorescence; filed as Kd, often an IC50 or EC50 that approximates it; ≥ and ≤ were set here for values at or beyond the usual limits of such assays
HLA-B*15:17 [2] = assay: IEDB peptide-MHC binding, purified MHC/direct/fluorescence; filed as Kd, often an IC50 or EC50 that approximates it; ≥ and ≤ were set here for values at or beyond the usual limits of such assays; conditions: source organism: Vibrio parahaemolyticus AQ3810
HLA-B*58:01 = assay: as above; conditions: source organism: Vibrio parahaemolyticus
HLA-B*57:01 [3] = assay: as above; conditions: source organism: Vibrio parahaemolyticus AQ3810
HLA-A*02:01 [4] = assay: as above; conditions: source organism: Homo sapiens
HLA-B*27:03 = assay: IEDB peptide-MHC binding, purified MHC/competitive/fluorescence; filed as Kd, often an IC50 or EC50 that approximates it; ≥ and ≤ were set here for values at or beyond the usual limits of such assays; conditions: source organism: Homo sapiens
HLA-B*18:01 [5] = assay: as above; conditions: source organism: Homo sapiens
HLA-B*51:01 = assay: as above; conditions: source organism: Homo sapiens
HLA-B*39:01 = assay: as above; conditions: source organism: Homo sapiens
HLA-A*69:01 = assay: as above; conditions: source organism: Homo sapiens
HLA-B*15:17 [6] = assay: as above; conditions: source organism: Homo sapiens
HLA-A*26:01 = assay: as above; conditions: source organism: Homo sapiens
HLA-B*46:01 = assay: as above; conditions: source organism: Homo sapiens
HLA-B*57:01 [7] = assay: as above; conditions: source organism: Homo sapiens
HLA-B*15:01 = assay: as above; conditions: source organism: Homo sapiens
HLA-A*02:01 [8] = assay: as above; conditions: source organism: Homo sapiens
HLA-A*02:01 [9] = assay: IEDB peptide-MHC binding, purified MHC/competitive/radioactivity; filed as Kd, often an IC50 or EC50 that approximates it; ≥ and ≤ were set here for values at or beyond the usual limits of such assays; conditions: source organism: Dengue virus 3 China/80-2/1980
HLA-A*02:17 = assay: as above; conditions: source organism: Dengue virus 3 China/80-2/1980
HLA-A*02:03 = assay: as above; conditions: source organism: Dengue virus 3 Martinique/1243/1999
HLA-A*02:06 = assay: as above; conditions: source organism: Dengue virus 3 Martinique/1243/1999
HLA-B*08:01 = assay: IEDB peptide-MHC binding, purified MHC/direct/fluorescence; filed as Kd, often an IC50 or EC50 that approximates it; ≥ and ≤ were set here for values at or beyond the usual limits of such assays
HLA-B*08:02 = assay: as above
[10] = source organism: Mammarenavirus brazilense
[11] = source organism: SARS coronavirus Tor2
[12] = source organism: Mycobacterium tuberculosis C

Sequence: PEDQGNPIVL
pKd (HLA-B*18:01 [1]; [10]): ≤ 4.41
pKd (HLA-B*45:01; [10]): ≤ 4.15
pKd (HLA-B*40:01; [10]): ≤ 4.51
pKd (HLA-B*40:02; [10]): 4.98
pKd (HLA-B*44:03; [10]): ≤ 4.15
pKd (HLA-B*44:02; [10]): ≤ 4.15

pKd (HLA-A*03:01; source organism: Escherichia coli K-12): 7.89
Sequence: QLAFFVAGK

Sequence: QTWKPDDVL
pKd (HLA-B*15:17 [2]): 6.14
pKd (HLA-B*58:01): ≤ 4.70
pKd (HLA-B*57:01 [3]): ≤ 4.70

Sequence: REMLAHAEET
pKd (HLA-B*18:01 [1]; [11]): 5.99
pKd (HLA-B*45:01; [11]): 6.82
pKd (HLA-B*40:01; [11]): 6.04
pKd (HLA-B*40:02; [11]): 7.17
pKd (HLA-B*44:03; [11]): 6.64
pKd (HLA-B*44:02; [11]): 6.05

pKd (HLA-A*03:01; source organism: Trichodesmium erythraeum IMS101): 7.14
Sequence: RVDEIILFH

Sequence: RWFFRPLRK
pKd (HLA-A*03:01; source organism: Entamoeba dispar SAW760): 6.90

Sequence: SEGVPDLLV
pKd (HLA-B*18:01 [1]; [11]): ≤ 4.11
pKd (HLA-B*45:01; [11]): 4.86
pKd (HLA-B*40:01; [11]): ≤ 4.54
pKd (HLA-B*40:02; [11]): ≤ 4.43
pKd (HLA-B*44:03; [11]): ≤ 4.68
pKd (HLA-B*44:02; [11]): ≤ 4.43

Sequence: TEAFEKMVSL
pKd (HLA-B*18:01 [1]; [11]): 5.81
pKd (HLA-B*45:01; [11]): 5.35
pKd (HLA-B*40:01; [11]): 8.45
pKd (HLA-B*40:02; [11]): 7.46
pKd (HLA-B*44:03; [11]): 5.24
pKd (HLA-B*44:02; [11]): 5.72

Sequence: TEHSWNADL
pKd (HLA-B*18:01 [1]; [11]): 5.08
pKd (HLA-B*45:01; [11]): 6.48
pKd (HLA-B*40:01; [11]): 7.47
pKd (HLA-B*40:02; [11]): 6.88
pKd (HLA-B*44:03; [11]): 6.86
pKd (HLA-B*44:02; [11]): 6.90

Sequence: VELKHFFFA
pKd (HLA-B*18:01 [1]; [11]): 5.77
pKd (HLA-B*45:01; [11]): 7.80
pKd (HLA-B*40:01; [11]): ≤ 4.53
pKd (HLA-B*40:02; [11]): 6.99
pKd (HLA-B*44:03; [11]): 5.58
pKd (HLA-B*44:02; [11]): 4.81

pKd (HLA-A*02:01 [4]): 8.82
pKd (HLA-B*27:03): ≤ 4.70
pKd (HLA-B*18:01 [5]): ≤ 4.70
pKd (HLA-B*51:01): ≤ 4.70
pKd (HLA-B*39:01): ≤ 4.70
pKd (HLA-A*69:01): ≤ 4.70
pKd (HLA-B*15:17 [6]): ≤ 4.70
pKd (HLA-A*26:01): ≤ 4.70
pKd (HLA-B*46:01): ≤ 4.70
pKd (HLA-B*57:01 [7]): ≤ 4.70
pKd (HLA-B*15:01): ≤ 4.70
Sequence: VLIRRCHYL

pKd (HLA-B*27:03): ≤ 4.70
pKd (HLA-B*18:01 [5]): ≤ 4.70
pKd (HLA-B*51:01): ≤ 4.70
pKd (HLA-A*02:01 [8]): ≤ 4.70
pKd (HLA-B*39:01): ≤ 4.70
pKd (HLA-A*69:01): ≤ 4.70
pKd (HLA-A*26:01): ≤ 4.70
pKd (HLA-B*46:01): ≤ 4.70
pKd (HLA-B*57:01 [7]): ≤ 4.70
pKd (HLA-B*15:01): ≤ 4.70
Sequence: VSDFRKEFY

Sequence: WMTTEDMLTV
pKd (HLA-A*02:01 [9]): 7.87
pKd (HLA-A*02:17): 5.65
pKd (HLA-A*02:03): 7.43
pKd (HLA-A*02:06): 8.07

Sequence: YLRRRQKAL
pKd (HLA-B*08:01; [12]): 8.00
pKd (HLA-B*08:02; [12]): 5.88

Sequence: YSKVKLLGL
pKd (HLA-B*08:01; source organism: Orthohantavirus dobravaense): 7.28
pKd (HLA-B*08:02; source organism: Kurkino virus): 6.29
